The target of assay [1] is T1, human Claudin18.1 (CLDN18.1), full length, on cells (human, UniProt P56856 1-261).
T1 construct: HEK293-CLDN18.1 cells carry a fusion with green fluorescent protein (ZsGreen); CHO-K1-CLDN18.1 cells carry pcDNA3.1-CLDN18.1; The cell line is named under assay; also called CLDN18.1-FL; HEK293-CLDN18.1 cells
The assay is described as follows: cellular ELISA.

Assay [2] has as its target T2, human Claudin18.2 (CLDN18.2), full length, on cells (human).
T2 construct: also called CLDN18.2-FL; HEK293-CLDN18.2 cells
Kind of assay: cellular ELISA. In general terms: ELISA stands for enzyme-linked immunosorbent assay.

For assay [3], the target named is T2, human Claudin18.2 (CLDN18.2), full …. Kind of assay: FACS on NUGC4 cells. From the text: (§1) Human gastric cancer cells NUGC4 and stably transfected cells CHO-K1-CLDN18.1 (prepared in Example 5) were used respectively, to verify the specificity and affinity of the anti-CLDN18.2 antibodies above at the cellular level by FAGS technology. After antibody affinity maturation and screening in vitro, each antibody can bind to the CLDN18.2 target on NUGC4 cells, but not to CHO-K1-CLDN18.1 cells, as compared with the original 3CHI antibody.

Assay [4] concerns the target T1, human Claudin18.1 (CLDN18.1), full …. The assay is described as follows: FACS on CHO-K1-CLDN18.1 cells.
Text: as §1

From patent US20220119517A1 (NANJING SANHOME PHARMACEUTICAL, published 2022) come the findings set out here.

B1: 307CHI (antibody, V domains shown)
VH: EVKLVESGGGLVQPGGSLKLSCAASGFGFSDYGMAWVRQAPRKGPEWVAFISNSAYSIYYADTVTGRFTISRENAKNTLYLEMSSLRSEDTAMYYCARLGYGNSFAYWGQGTLVTVSA
VL: DIVMTQSPSSLTVTAGEKVTMSCKSSQSLLNSGNQKNYLTWYQQKPGQPPKLLIYWASTRESGVPDRFTGSGSGTDFTLTISSVQAEDLAVYYCQNNYYYPLTFGAGTKLELK
notes: chimeric with the constant region of human IgG1
Regarding B1, the binding result was “no binding” in assay [1] and “binds” in assay [2].

B2: 302CHI (antibody, V domains shown)
VH: EVKLVESGGGLVQPGGSLKLSCAASGFTFSDYGMAWVRQAPRKGPEWVAFISNLAYSIYYADTVTGRFTISRENAKNTLYLEMSSLRSEDTAMYYCARLGYGNSFAYWGQGTLVTVSA
VL: DIVMTQSPSSLTVTAGEKVTMSCKSSQSLLNSGNQKNYLTWYQQKPGQPPKLLIYWASTRESGVPDRFTGSGSGTDFTLTISSVQAEDLAVYYCQNDYSLPFTFGAGTKLELK
notes: as for B1
For the molecule B2, the binding result was “no binding” in assay [1] and “binds” in assay [2].

B3: 313CHI (antibody, V domains shown)
VH: EVKLVESGGGLVQPGGSLKLSCAASGFTFSDYGMAWVRQAPRKGPEWVAFISNLAYSIYYADTVTGRFTISRENAKNTLYLEMSSLRSEDTAMYYCARLGRGNSFAYWGQGTLVTVSA
VL: DIVMTQSPSSLTVTAGEKVTMSCKSSQSLLNSGNQKNYLTWYQQKPGQPPKLLIYWASTRESGVPDRFTGSGSGTDFTLTISSVQAEDLAVYYCQNNYYYPLTFGAGTKLELK
notes: as for B1
For the molecule B3, the figures for the binding result in assay [1] and in assay [2] were “no binding” and “binds”, respectively.

B4: 315CHI (antibody, human IgG1, V domains shown)
VH: EVKLVESGGGLVQPGGSLKLSCAASGFTFSDYGMAWVRQAPRKGPEWVAFISNLAYSIYYADTVTGRFTISRENAKNTLYLEMSSLRSEDTAMYYCARLGRGNSFAYWGQGTLVTVSA
VL: DIVMTQSPSSLTVTAGEKVTMSCKSSQSLLNSGNQKNYLTWYQQKPGQPPKLLIYWASTRESGVPDRFTGSGSGTDFTLTISSVQAEDLAVYYCQNELFYPLTFGAGTKLELK
notes: as for B1
As for B4, in assay [3], the “MFI (CLDN18.2)” value worked out at 42300 MFI. The binding result in assay [1] is reported as “no binding”. Also, the “MFI (CLDN18.1)” value in assay [4] was 65 MFI.

B5: 324CHI (antibody, human IgG1, V domains shown)
VH: EVKLVESGGGLVQPGGSLKLSCAASGFTFSDYGMAWVRQAPRKGPEWVAFISNLAYSIYYADTVTGRFTISRENAKNTLYLEMSSLRSEDTAMYYCARLGYGNSFAYWGQGTLVTVSA
VL: DIVMTQSPSSLTVTAGEKVTMSCKSSQSLLNSGNQKNYLTWYQQKPGQPPKLLIYWGSTRESGVPDRFTGSGSGTDFTLTISSVQAEDLAVYYCQNELFYPLTFGAGTKLELK
notes: as for B1
As to B5, the “MFI (CLDN18.2)” value in assay [3] was 36000 MFI. In addition, the binding result in assay [1] is “no binding”. In assay [4], the “MFI (CLDN18.1)” value is 248 MFI.

B6: 328CHI (antibody, human IgG1, V domains shown)
VH: EVKLVESGGGLVQPGGSLKLSCAASGFGFSDYGMAWVRQAPRKGPEWVAFISNSAYSIYYADTVTGRFTISRENAKNTLYLEMSSLRSEDTAMYYCARLGRGNSFAYWGQGTLVTVSA
VL: DIVMTQSPSSLTVTAGEKVTMSCKSSQSLLNSGNQKNYLTWYQQKPGQPPKLLIYWGSTRESGVPDRFTGSGSGTDFTLTISSVQAEDLAVYYCQNNYYYPLTFGAGTKLELK
notes: as for B1
As to B6, the binding result in assay [1] was “no binding”; in assay [2] it was “binds”.

B7: 308CHI (antibody, V domains shown)
VH: EVKLVESGGGLVQPGGSLKLSCAASGFGFSDYGMAWVRQAPRKGPEWVAFISNSAYSIYYADTVTGRFTISRENAKNTLYLEMSSLRSEDTAMYYCARLGYGNSFAYWGQGTLVTVSA
VL: DIVMTQSPSSLTVTAGEKVTMSCKSSQSLLNSGNQKNYLTWYQQKPGQPPKLLIYWASTRESGVPDRFTGSGSGTDFTLTISSVQAEDLAVYYCQNDYSLPFTFGAGTKLELK
notes: as for B1
Regarding B7, the values for the binding result in assay [1] and in assay [2] were “no binding” and “binds”, respectively.

B8: 303CHI (antibody, V domains shown)
VH: EVKLVESGGGLVQPGGSLKLSCAASGFTFSRYGMAWVRQAPGKGPEWVAFISNSAYSIYYADTVTGRFTISRENAKNTLYLEMSSLRSEDTAMYYCARLGYGNSFAYWGQGTLVTVSA
VL: DIVMTQSPSSLTVTAGEKVTMSCKSSQSLLNSGNQKNYLTWYQQKPGQPPKLLIYWGSTRESGVPDRFTGSGSGTDFTLTISSVQAEDLAVYYCQNDYSYPLTFGAGTKLELK
notes: as for B1
Turning to B8, the “MFI (CLDN18.2)” value in assay [3] worked out at 38200 MFI. In assay [1], the binding result is “no binding”. The “MFI (CLDN18.1)” value in assay [4] was 85 MFI.

B9: 322CHI (antibody, human IgG1, V domains shown)
VH: EVKLVESGGGLVQPGGSLKLSCAASGFTFSDYGMAWVRQAPRKGPEWVAFISNLAYSIYYADTVTGRFTISRENAKNTLYLEMSSLRSEDTAMYYCARLGYGNSFAYWGQGTLVTVSA
VL: DIVMTQSPSSLTVTAGEKVTMSCKSSQSLLNSGNQKNYLTWYQQKPGQPPKLLIYWGSTRESGVPDRFTGSGSGTDFTLTISSVQAEDLAVYYCQNNYYYPLTFGAGTKLELK
notes: as for B1
With B9, the “MFI (CLDN18.2)” value in assay [3] is 44800 MFI. The binding result in assay [1] was “no binding”. Also, in assay [4], the “MFI (CLDN18.1)” value was determined as 57 MFI.

B10: 312CHI (antibody, human IgG1, V domains shown)
VH: EVKLVESGGGLVQPGGSLKLSCAASGFTFSRYGMAWVRQAPGKGPEWVAFISNSAYSIYYADTVTGRFTISRENAKNTLYLEMSSLRSEDTAMYYCARLGYGNSFAYWGQGTLVTVSA
VL: DIVMTQSPSSLTVTAGEKVTMSCKSSQSLLNSGNQKNYLTWYQQKPGQPPKLLIYWASTRESGVPDRFTGSGSGTDFTLTISSVQAEDLAVYYCQNELFYPLTFGAGTKLELK
notes: as for B1
B10: the binding result in assay [1] is reported as “no binding”; in assay [2], “binds”.

B11: 321CHI (antibody, human IgG1, V domains shown)
VH: EVKLVESGGGLVQPGGSLKLSCAASGFGFSDYGMAWVRQAPRKGPEWVAFISNSAYSIYYADTVTGRFTISRENAKNTLYLEMSSLRSEDTAMYYCARLGRGNSFAYWGQGTLVTVSA
VL: DIVMTQSPSSLTVTAGEKVTMSCKSSQSLLNSGNQKNYLTWYQQKPGQPPKLLIYWASTRESGVPDRFTGSGSGTDFTLTISSVQAEDLAVYYCQNELFYPLTFGAGTKLELK
notes: as for B1
In the case of B11, the “MFI (CLDN18.2)” value in assay [3] worked out at 46300 MFI. In assay [1], the binding result was “no binding”. In assay [4], the “MFI (CLDN18.1)” value came out at 299 MFI.

B12: 301CHI (antibody, V domains shown)
VH: EVKLVESGGGLVQPGGSLKLSCAASGFTFSDYGMAWVRQAPRKGPEWVAFISNLAYSIYYADTVTGRFTISRENAKNTLYLEMSSLRSEDTAMYYCARLGYGNSFAYWGQGTLVTVSA
VL: DIVMTQSPSSLTVTAGEKVTMSCKSSQSLLNSGNQKNYLTWYQQKPGQPPKLLIYWASTRESGVPDRFTGSGSGTDFTLTISSVQAEDLAVYYCQNNYYYPLTFGAGTKLELK
notes: as for B1
With B12, the “MFI (CLDN18.2)” value in assay [3] was found to be 44400 MFI. In assay [1], the binding result was “no binding”. The “MFI (CLDN18.1)” value in assay [4] turned out to be 114 MFI.

B13: 304CHI (antibody, V domains shown)
VH: EVKLVESGGGLVQPGGSLKLSCAASGFGFSDYGMAWVRQAPRKGPEWVAFISNSAYSIYYADTVTGRFTISRENAKNTLYLEMSSLRSEDTAMYYCARLGYGNSFAYWGQGTLVTVSA
VL: DIVMTQSPSSLTVTAGEKVTMSCKSSQSLLNSGNQKNYLTWYQQKPGQPPKLLIYWASTREPGVPDRFTGSGSGTDFTLTISSVQAEDLAVYYCQNDYSYPLTFGAGTKLELK
notes: as for B1
For the molecule B13, the binding result in assay [1] is “no binding”; in assay [2], “binds”.

B14: 309CHI (antibody, human IgG1, V domains shown)
VH: EVKLVESGGGLVQPGGSLKLSCAASGFGFSDYGMAWVRQAPRKGPEWVAFISNSAYSIYYADTVTGRFTISRENAKNTLYLEMSSLRSEDTAMYYCARLGYGNSFAYWGQGTLVTVSA
VL: DIVMTQSPSSLTVTAGEKVTMSCKSSQSLLNSGNQKNYLTWYQQKPGQPPKLLIYWASTRESGVPDRFTGSGSGTDFTLTISSVQAEDLAVYYCQNELFYPLTFGAGTKLELK
notes: as for B1
Take B14: the “MFI (CLDN18.2)” value in assay [3] was 42500 MFI. Also, the binding result in assay [1] is “no binding”. The “MFI (CLDN18.1)” value in assay [4] came to 78 MFI.

B15: 306CHI (antibody, V domains shown)
VH: EVKLVESGGGLVQPGGSLKLSCAASGFTFSDYGMAWVRQAPRKGPEWVAFISNLAYSIYYADTVTGRFTISRENAKNTLYLEMSSLRSEDTAMYYCARLGRGNSFAYWGQGTLVTVSA
VL: DIVMTQSPSSLTVTAGEKVTMSCKSSQSLLNSGNQKNYLTWYQQKPGQPPKLLIYWASTRESGVPDRFTGSGSGTDFTLTISSVQAEDLAVYYCQNDYSFPLTFGAGTKLELK
notes: as for B1
B15: the binding result in assay [1] was “no binding”; in assay [2] it was “binds”.

B16: 319CHI (antibody, V domains shown)
VH: EVKLVESGGGLVQPGGSLKLSCAASGFGFSDYGMAWVRQAPRKGPEWVAFISNSAYSIYYADTVTGRFTISRENAKNTLYLEMSSLRSEDTAMYYCARLGRGNSFAYWGQGTLVTVSA
VL: DIVMTQSPSSLTVTAGEKVTMSCKSSQSLLNSGNQKNYLTWYQQKPGQPPKLLIYWASTRESGVPDRFTGSGSGTDFTLTISSVQAEDLAVYYCQNNYYYPLTFGAGTKLELK
notes: as for B1
Regarding B16, the binding result in assay [1] is on record as “no binding”; in assay [2], “binds”.
